Laboratory results as given in patent US20240084003A1 (SIMCERE ZAIMING PHARMACEUTICAL, published 2024).

T1: murine CD22 protein (ACROBiosystems, SI2-M52Ha) (murine, UniProt P35329 22-708)
T1 construct: extracellular domain; also called murine CD22-ECD; murine CD22-ECD-His
T1 sequence (looked up): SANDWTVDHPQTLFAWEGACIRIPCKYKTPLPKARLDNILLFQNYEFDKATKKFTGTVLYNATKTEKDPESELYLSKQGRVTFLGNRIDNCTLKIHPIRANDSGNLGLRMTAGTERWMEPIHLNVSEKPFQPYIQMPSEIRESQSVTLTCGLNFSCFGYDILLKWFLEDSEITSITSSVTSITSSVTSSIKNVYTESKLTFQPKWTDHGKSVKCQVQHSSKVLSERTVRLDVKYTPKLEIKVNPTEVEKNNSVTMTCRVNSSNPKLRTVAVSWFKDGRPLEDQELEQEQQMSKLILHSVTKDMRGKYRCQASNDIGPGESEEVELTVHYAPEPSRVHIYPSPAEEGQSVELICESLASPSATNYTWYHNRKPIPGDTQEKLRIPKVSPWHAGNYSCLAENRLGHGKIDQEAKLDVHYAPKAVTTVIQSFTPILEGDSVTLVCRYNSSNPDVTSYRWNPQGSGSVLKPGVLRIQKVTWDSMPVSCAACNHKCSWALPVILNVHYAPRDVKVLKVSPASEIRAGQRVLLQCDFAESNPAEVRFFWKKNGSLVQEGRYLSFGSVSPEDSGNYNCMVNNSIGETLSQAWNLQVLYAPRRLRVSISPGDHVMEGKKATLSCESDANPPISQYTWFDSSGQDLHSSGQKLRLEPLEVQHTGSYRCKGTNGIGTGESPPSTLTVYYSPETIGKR

T2: human CD22, full length, on CHO-K1-human CD22 2C4 cells (human, UniProt P20273 20-847)
T2 construct: Full-length human CD22 (NCBI NP_001762.2) stably transfected into CHO-K1
T2 sequence: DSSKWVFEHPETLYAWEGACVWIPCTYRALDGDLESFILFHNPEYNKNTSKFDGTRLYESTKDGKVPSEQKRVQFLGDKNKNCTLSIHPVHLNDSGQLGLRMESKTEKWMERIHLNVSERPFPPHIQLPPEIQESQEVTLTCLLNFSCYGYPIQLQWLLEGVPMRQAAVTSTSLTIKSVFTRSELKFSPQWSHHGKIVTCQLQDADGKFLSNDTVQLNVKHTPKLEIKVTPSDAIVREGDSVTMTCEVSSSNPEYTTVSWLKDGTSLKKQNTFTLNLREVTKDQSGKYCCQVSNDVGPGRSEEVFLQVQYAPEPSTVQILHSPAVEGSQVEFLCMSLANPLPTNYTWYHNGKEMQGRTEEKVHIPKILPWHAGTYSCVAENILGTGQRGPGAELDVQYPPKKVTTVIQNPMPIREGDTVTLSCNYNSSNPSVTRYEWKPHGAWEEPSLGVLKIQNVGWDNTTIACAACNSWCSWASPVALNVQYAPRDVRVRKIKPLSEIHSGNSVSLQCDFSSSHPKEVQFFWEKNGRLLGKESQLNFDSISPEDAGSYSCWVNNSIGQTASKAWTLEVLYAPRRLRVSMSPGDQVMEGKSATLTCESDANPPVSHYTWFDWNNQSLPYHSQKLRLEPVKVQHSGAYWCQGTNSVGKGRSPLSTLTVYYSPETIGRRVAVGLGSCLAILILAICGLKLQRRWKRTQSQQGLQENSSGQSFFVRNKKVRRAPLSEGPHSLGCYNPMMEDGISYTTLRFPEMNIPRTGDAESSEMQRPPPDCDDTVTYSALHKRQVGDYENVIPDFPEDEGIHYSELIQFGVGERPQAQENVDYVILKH

T3: human CD22, endogenous on Raji cells (human, UniProt P20273 20-847)
T3 construct: whole, on cells; Endogenous protein of the Raji cell line
T3 sequence (looked up): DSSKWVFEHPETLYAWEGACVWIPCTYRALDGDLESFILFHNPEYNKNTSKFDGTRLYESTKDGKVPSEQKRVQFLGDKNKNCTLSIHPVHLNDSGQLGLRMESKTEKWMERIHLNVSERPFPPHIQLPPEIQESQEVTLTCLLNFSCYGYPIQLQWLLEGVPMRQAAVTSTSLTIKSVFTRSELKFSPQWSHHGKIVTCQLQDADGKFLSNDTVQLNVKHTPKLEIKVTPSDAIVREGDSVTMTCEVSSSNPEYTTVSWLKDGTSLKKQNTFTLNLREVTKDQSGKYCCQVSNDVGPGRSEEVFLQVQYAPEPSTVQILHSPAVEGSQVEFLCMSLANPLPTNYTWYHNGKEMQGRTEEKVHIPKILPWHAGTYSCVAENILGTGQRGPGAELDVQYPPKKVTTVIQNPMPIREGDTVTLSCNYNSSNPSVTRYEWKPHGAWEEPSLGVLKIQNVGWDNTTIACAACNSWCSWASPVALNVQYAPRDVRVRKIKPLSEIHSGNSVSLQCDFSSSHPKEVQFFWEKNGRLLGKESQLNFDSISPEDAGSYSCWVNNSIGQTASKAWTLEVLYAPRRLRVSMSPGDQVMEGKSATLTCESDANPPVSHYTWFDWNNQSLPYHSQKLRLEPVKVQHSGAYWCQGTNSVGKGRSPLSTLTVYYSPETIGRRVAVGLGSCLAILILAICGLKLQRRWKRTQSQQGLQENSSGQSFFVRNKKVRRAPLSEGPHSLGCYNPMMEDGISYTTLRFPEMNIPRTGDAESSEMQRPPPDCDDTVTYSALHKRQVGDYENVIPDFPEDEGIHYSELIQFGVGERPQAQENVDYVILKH


Tests used:
[1] = biological target: T1, murine CD22 protein (ACROBiosystems, …); test: ELISA, coated murine CD22, 100 nM Ab
Experimental: (§1) In order to detect the binding activity of CD22 human-murine chimeric antibodies to CD22 protein, the purified human CD22-ECD-His protein obtained in Example 2 was diluted with PBS to a final concentration of 2 μg/mL, and then added to 96-well ELISA plate at 100 μl/well. The plate was sealed with plastic film and incubated overnight at 4° C., the plate was washed 2 times with PBS the next day, and then a blocking solution [PBS+2% (w/w) BSA] was added for blocking at room temperature for 2 hours. […] After incubation at 37° C. for 2 hours, the plate was washed 3 times with PBS. HRP (horseradish peroxidase)-labeled secondary antibody (purchased from Sigma, catalog number: A0170) was added, and incubated at 37° C. for 2 hours, and the plate was washed 5 times with PBS. TMB substrate was added at 50 μl/well, and incubated at room temperature for 30 minutes, then a stop solution (1.0 N HCl) was added at 50 μl/well.
(§2) In order to detect the species cross-binding activity of the chimeric antibodies, an ELISA plate was coated with commercial murine CD22 protein (ACROBiosystems, catalog number: SI2-M52Ha) and monkey CD22 protein (ACROBiosystems, catalog number: SI2-R52Ha), respectively, and the ELISA detection was performed according to the method in Example 5.1.

[2] = biological target: T1, murine CD22 protein (ACROBiosystems, …); test: ELISA, coated murine CD22, 0.00001 nM Ab
Experimental: as §1, §2

[3] = biological target: T1, murine CD22 protein (ACROBiosystems, …); test: ELISA, coated murine CD22, 0.1 nM Ab
Experimental: as §1, §2

[4] = biological target: T1, murine CD22 protein (ACROBiosystems, …); test: ELISA, coated murine CD22, 0.01 nM Ab
Experimental: as §1, §2

[5] = biological target: T1, murine CD22 protein (ACROBiosystems, …); test: ELISA, coated murine CD22, 0.001 nM Ab
Experimental: as §1, §2

[6] = biological target: T1, murine CD22 protein (ACROBiosystems, …); test: ELISA, coated murine CD22, 10 nM Ab
Experimental: as §1, §2

[7] = biological target: T2, human CD22, full length, on …; test: FACS, CHO-K1-human CD22 2C4 cells
Text: (§3) The required cells were scale-up cultured in a T-75 cell culture flask to the logarithmic growth phase. For the adherent cell CHO-K1, the medium was aspirated, the cells were washed 2 times with PBS buffer, and then digested with trypsin. After the digestion was terminated, the cells were washed 2 times with PBS buffer. For suspension cell Raji, the medium supernatant was directly centrifuged and discarded, and the cell pellet was washed 2 times with PBS. After counting the cells in the previous step, the cell pellet was resuspended with [PBS+2% (w/w) BSA] blocking solution to 2×10⁶ cells/ml, and added to a 96-well FACS reaction plate at 50 μl/well, and then the chimeric antibody test sample was added at 50 μl/well, and incubated on ice for 2 hours. The mixture was centrifuged and washed 3 times with PBS buffer, Alexa Flour 488-labeled secondary antibody (purchased from Invitrogen, catalog number: A-11013) was added at 50 μl/well, and incubated on ice for 1 hour. The obtained mixture was centrifuged and washed 5 times with PBS, and FACS (FACS Canto™, purchased from BD Company) was used for detection and result analysis. Data analysis was performed by software (CellQuest) to obtain the mean fluorescence density (MFI)of the cells. And then software (GraphPad Prism8) was used for analysis, data fitting, and EC50 value calculation. […] The same method was used to detect the binding of the chimeric antibodies to endogenous CD22-negative cell MoLT4 cells (purchased from ATCC, CRL-1582) and CHO-K1 cells.

[8] = biological target: T3, human CD22, endogenous on Raji cells; test: FACS, Raji cells
Text: as §3

[9] = biological target: T1, murine CD22 protein (ACROBiosystems, …); test: ELISA, coated murine CD22, 0.0001 nM Ab
Experimental: as §1, §2

OD450 [1] [OD450] | OD450 [2] [OD450] | OD450 [3] [OD450] | OD450 [4] [OD450] | OD450 [5] [OD450] | OD450 [6] [OD450] | EC50 [7] [nM] | Maximum mean fluorescence intensity [7] [MFI] | EC50 [8] [nM] | Maximum mean fluorescence intensity [8] [MFI] | OD450 [9] [OD450] | Binder
0.07 | 0.06 | 0.05 | 0.05 | 0.05 | 0.06 | 0.44 | 36900 | 0.17 | 28500 | 0.05 | F1.17.1 human-murine chimeric antibody (antibody, human IgG1, kappa, V domains shown, Chimeric, human IgG1 / kappa) VH: QVQLKESGPGLVAPSQSLSITCTVSGFSLSRYTVHWVRQPPGKGLEWLGMIWGGGSTDYNSALKSRLSISKDNSKSQVFLKMNSLQTDDTAMYYCARPHDFDAGGFAYWGQGTLVTVSA VL: QIVLTQSPAILSTSPGEKVTMTCSASSRVNYMYWYQQKPGSSPRLLIYDTSNLASGVPVRFSGSGSGTSYSLTISRMEAEDAATYYCQQWTSYPLTFGAGTKLELKR
0.09 | 0.06 | 0.06 | 0.06 | 0.06 | 0.07 | 0.33 | 43300 | 0.07 | 29900 | 0.07 | F1.245.2 human-murine chimeric antibody (antibody, human IgG1, kappa, V domains shown, Chimeric, human IgG1 / kappa) VH: EVQLQQSGAELVKPGASVKLSCTGSGFNIKDYYIHWVKQRTEQGLEWMGRIDPEDGETEYAPKFQDEATITSDTSSNTAYLQLSSLTYEDTAVYYCAREAAGYFYRGSSYGYFDVWGTGTTVTVSS VL: DFQMTQTTSFLSASLGDRVTISCSASQDISNYLNWYQQKPDGTVKLLIYYTSSLHSGVPSRFSGSGSGTDYSLTISNLEPEDIATYYCQQYSMLPYTFGGGTKLEMER
0.08 | 0.06 | 0.05 | 0.05 | 0.05 | 0.06 | 0.59 | 33800 | 0.17 | 23800 | 0.06 | F1.172.13 human-murine chimeric antibody (antibody, human IgG1, kappa, V domains shown, Chimeric, human IgG1 / kappa) VH: QVTLKESGPGILQSSQTLSLTCSFSGFSLSTSGMGVSWIRQPSGKGLEWLAHIYWDDDKRYNPSLKSRLTISKDTSRNQVFLKITSVDTADTATYYCARAPPPNWDEYYFDYWGQGTTLTVSS VL: DIQMTQSPASLSASVGETVTITCRASGNIHNSLAWYQQKQGKSPQLLVHNAKTLADGVPSRFSGSGSGTQYSLKINSLQPEDFGSYYCQHFWSTPPFGGGTKLEIKR
0.08 | 0.06 | 0.05 | 0.05 | 0.05 | 0.06 | 0.59 | 37100 | 0.22 | 27900 | 0.05 | F1.161.7 human-murine chimeric antibody (antibody, human IgG1, kappa, V domains shown, Chimeric, human IgG1 / kappa) VH: QVQLQQPGAELVKPGASVKMSCKASGYTFTSYWISWVKQRPGQGLEWIGDIYPGTGSSNYNEKFKSKATLTVDTSSSTAYMQLSSLTSEDSAVYYCARLKFEGIGYWGQGTTLTVSS VL: QIVLTQSPAIMSASLGEEITLTCSASSSVSYMHWFQQKSGTSPKLLIYSISNLASGVPSRFSGSGSGTFYSLTISSVEAEDAADYYCHQWSSYPWTFGGGTKLEIKR
0.2 | 0.06 | 0.05 | 0.05 | 0.05 | 0.07 | 0.68 | 46600 | 0.27 | 29300 | 0.05 | F1.257.3 human-murine chimeric antibody (antibody, human IgG1, kappa, V domains shown, Chimeric, human IgG1 / kappa; VL tied by name) VH: QVQLQQSGPELARPGASVKLSCKASGYTFTSYGISWVKQRTGQDLEWIGEIYPKLGTTYYNEKFKDKATLTTDRSSSTAYMALRSLTSEDSAVYFCACPHYYATRGGDYWGQGTTLTVSS VL: EIVLTQSPATLSVTPGDSVTFSCRASQSISNHLHWYQQKSHESPRLLIRYASQSISGIPSRFSGSGSGTDFTLSLSSVETEDFGVYFCQQSHSWPYTFGGGTKLEIAR
0.08 | 0.06 | 0.05 | 0.06 | 0.05 | 0.06 | 0.61 | 30100 | 0.29 | 25300 | 0.06 | F1.60.9 human-murine chimeric antibody (antibody, human IgG1, kappa, V domains shown, Chimeric, human IgG1 / kappa) VH: QVQLKESGPGLVAPSQSLSITCTVSGLSLNNYGVSWVRQPPGKGLEWLGVIWGDGSTNYHSALISRLSISKDNSKSQVFLKLNSLHTDDTATYYCAINWGDYWGQGTTLIVSS VL: DIKMTQSPSSMNASLGERVTITCKASQDINSYLSWFQQKPGKSPKILIYRANRLIDGVPSRFSGSGSGQDYSLTISSLEYEDMGIYYCLQYGVFPLTFGAGTKLELKR
